Our source for the Kd and Ka values is article PMC3589550 (Nature structural & molecular biology, 2011).

The labels stand for the following.
B1: vIRF4^153–256/Δ202–216 (domain or fragment)
chain: SDTREQSYEEAGAAAPAPPKAPSGLRGRPRKSNRYYNVGDITTEQKAACGSSGTRQVTQASSFTWRVPGDPPAPSTLTGPSDPHSSGAG
B2: vIRF4^153–256 (domain or fragment)
chain: SDTREQSYEEAGAAAPAPPKAPSGLRGRPRKSNRYYNVGDITTEQKAACSVWIPVNEGASTSGMGSSGTRQVTQASSFTWRVPGDPPAPSTLTGPSDPHSSGAG
B3: vIRF4^153–256/Δ202–216/Δ237–256 (domain or fragment)
chain: SDTREQSYEEAGAAAPAPPKAPSGLRGRPRKSNRYYNVGDITTEQKAACGSSGTRQVTQASSFTWRVPG
B4: vIRF4^153–216 (domain or fragment)
chain: SDTREQSYEEAGAAAPAPPKAPSGLRGRPRKSNRYYNVGDITTEQKAACSVWIPVNEGASTSGM

HAUSP^62–205 (HAUSP TRAF domain), sequence (Q93009 62-205): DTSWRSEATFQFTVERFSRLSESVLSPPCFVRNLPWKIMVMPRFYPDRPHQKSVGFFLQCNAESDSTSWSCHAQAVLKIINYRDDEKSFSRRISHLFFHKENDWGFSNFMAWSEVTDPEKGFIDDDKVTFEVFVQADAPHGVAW

The experiment has as its target HAUSP^62–205 (HAUSP TRAF domain) (UniProt Q93009 62-205). The experiment is described as follows: ITC. On the technique in general: ITC needs no label: the signal is the heat of the interaction.
As usually defined, the Kd is a measure of binding affinity in units of concentration. For the molecule B1, the Kd worked out at 3450 nM. This lies in the single-digit micromolar range.

EQGPADDPGEGPSTG [EBNA1^435–449 peptide] yielded a Kd of 480 nM. Compared with the last molecule, the Kd is about 7.2-fold lower.

As for B2, the dissociation constant (Kd) came out at 76 nM.

Molecule B3 yielded a Kd of 4030 nM.

B4 had a Kd of 540 nM. This Kd is about 7.5-fold lower than that of the molecule before.

In the case of DLVQELQEEKPSSSHL (peptide, UniProt Q00987 137-152, looked up) [MDM2^137–152 peptide], the Ka came out at 91000 M⁻¹ and the Kd was determined as 11100 nM.
